B1: IFT56 (protein, UniProt A0AVF1 1-554, looked up)
Intraflagellar transport …: MMLSRAKPAVGRGVQHTDKRKKKGRKIPKLEELLSKRDFTGAITLLEFKRHVGEEEEDTNLWIGYCAFHLGDYKRALEEYENATKEENCNSEVWVNLACTYFFLGMYKQAEAAGFKASKSRLQNRLLFHLAHKFNDEKKLMSFHQNLQDVTEDQLSLASIHYMRSHYQEAIDIYKRILLDNREYLALNVYVALCYYKLDYYDVSQEVLAVYLQQIPDSTIALNLKACNHFRLYNGRAAEAELKSLMDNASSSFEFAKELIRHNLVVFRGGEGALQVLPPLVDVIPEARLNLVIYYLRQDDVQEAYNLIKDLEPTTPQEYILKGVVNAALGQEMGSRDHMKIAQQFFQLVGGSASECDTIPGRQCMASCFFLLKQFDDVLIYLNSFKSYFYNDDIFNFNYAQAKAATGNTSEGEEAFLLIQSEKMKNDYIYLSWLARCYIMNKKPRLAWELYLKMETSGESFSLLQLIANDCYKMGQFYYSAKAFDVLERLDPNPEYWEGKRGACVGIFQMIIAGREPKETLREVLHLLRSTGNTQVEYMIRIMKKWAKENRVSI
B2: BLTP3B (protein, UniProt A0JNW5 1-1464, looked up)
Bridge-like lipid transfer …: MAGIIKKQILKHLSRFTKNLSPDKINLSTLKGEGELKNLELDEEVLQNMLDLPTWLAINKVFCNKASIRIPWTKLKTHPICLSLDKVIMEMSTCEEPRSPNGPSPIATASGQSEYGFAEKVVEGISVSVNSIVIRIGAKAFNASFELSQLRIYSVNAHWEHGDLRFTRIQDPQRGEVLTFKEINWQMIRIEADATQSSHLEIMCAPVRLITNQSKIRVTLKRRLKDCNVIATKLVLILDDLLWVLTDSQLKAMVQYAKSLSEAIEKSTEQRKSMAPEPTQSSTVVASAQQVKTTQTSNAPDVNDAIVKLFNDFDVKETSHHLVISHLDLHICDDIHAKEKESNRRITGGAMQLSFTQLTIDYYPYHKAGDSCNHWMYFSDATKTKNGWANELLHEFECNVEMLKQAVKDHNVGSPPKSPTHASPQHTQTEKDYPLKGTCRTPSVLSQQSKAKLMSSSVVVRLADFNIYQVSTAEQCRSSPKSMICCNKKSLYLPQEMSAVYIEFTEYYYPDGKDFPIPSPNLYSQLNALQFTVDERSILWLNQFLLDLKQSLNQFMAVYKLNDNSKSDEHVDVRVDGLMLKFVIPSEVKSECHQDQPRAISIQSSEMIATNTRHCPNCRHSDLEALFQDFKDCDFFSKTYTSFPKSCDNFNLLHPIFQRHAHEQDTKMHEIYKGNITPQLNKNTLKTSAATDVWAVYFSQFWIDYEGMKSGKGRPISFVDSFPLSIWICQPTRYAESQKEPQTCNQVSLNTSQSESSDLAGRLKRKKLLKEYYSTESEPLTNGGQKPSSSDTFFRFSPSSSEADIHLLVHVHKHVSMQINHYQYLLLLFLHESLILLSENLRKDVEAVTGSPASQTSICIGILLRSAELALLLHPVDQANTLKSPVSESVSPVVPDYLPTENGDFLSSKRKQISRDINRIRSVTVNHMSDNRSMSVDLSHIPLKDPLLFKSASDTNLQKGISFMDYLSDKHLGKISEDESSGLVYKSGSGEIGSETSDKKDSFYTDSSSILNYREDSNILSFDSDGNQNILSSTLTSKGNETIESIFKAEDLLPEAASLSENLDISKEETPPVRTLKSQSSLSGKPKERCPPNLAPLCVSYKNMKRSSSQMSLDTISLDSMILEEQLLESDGSDSHMFLEKGNKKNSTTNYRGTAESVNAGANLQNYGETSPDAISTNSEGAQENHDDLMSVVVFKITGVNGEIDIRGEDTEICLQVNQVTPDQLGNISLRHYLCNRPVGSDQKAVIHSKSSPEISLRFESGPGAVIHSLLAEKNGFLQCHIENFSTEFLTSSLMNIQHFLEDETVATVMPMKIQVSNTKINLKDDSPRSSTVSLEPAPVTVHIDHLVVERSDDGSFHIRDSHMLNTGNDLKENVKSDSVLLTSGKYDLKKQRSVTQATQTSPGVPWPSQSANFPEFSFDFTREQLMEENESLKQELAKAKMALAEAHLEKDALLHHIKKMTVE
B3: TMEM223 (protein, UniProt A0PJW6 1-202, looked up)
Transmembrane protein 223: MAAPWRRWPTGLLAVLRPLLTCRPLQGTTLQRDVLLFEHDRGRFFTILGLFCAGQGVFWASMAVAAVSRPPVPVQPLDAEVPNRGPFDLRSALWRYGLAVGCGAIGALVLGAGLLFSLRSVRSVVLRAGGQQVTLTTHAPFGLGAHFTVPLKQVSCMAHRGEVPAMLPLKVKGRRFYFLLDKTGHFPNTKLFDNTVGAYRSL
B4: BCLAF3 (protein, UniProt A2AJT9 1-711, looked up)
BCLAF1 and THRAP3 family …: MARSRSRSPRWKHRSLSPVPRNAEHYKQRHSHGHYGCEYRKDPKRPVAWRMDSEKHGQSKPRIPSRGNIYYQSYEHRSPSPNIRNSLENVYMYKPHRGYSPGRGDSNRRAQYMPKYSEGIPYKEHERNSYPQKVQGGHSPDDHRVRGSGKGGKPPQRSIADSFRFEGKWHEDELRHQRIQEEKYSQSTRRGSEDFETRSSFQKRYPEDRDFRKYGHTSKRPKDVERYESREPARNPKWKPEHSLPPYQEDTDQWNLGPQTYRHAEREHPETSSATKVSYDYRHKRPKLLDGDQDFSDGRTQKYCKEEDRKYSFQKGPLNRELDCFNTGRGRETQDGQVKEPFKPSKKDSIACTYSNKNDVDLRSSNDKWKEKIKKEGDCRKESNSSSNQLDKSQKLPDVKPSPINLRKKSLTVKVDVKKTVDTFRVASSYSTERQMSHDLVAVGRKSENFHPVFEHLDSTQNTENKPTGEFAQEIITIIHQVKANYFPSPGITLHERFSTMQDIHKADVNEIPLNSDPEIHRRIDMSLAELQSKQAVIYESEQTLIKIIDPNDLRHDIERRRKERLQNEDEHIFHIASAAERDDQNSSFSKVKNVHTDGFQKPTHFIKSNFRKCIEKPYMNYTTQRKDIITHKPFEVEGNHRNTRVRPFKSNFRGGRCQPNYKSGLVQKSLYIQAKYQRLRFTGPRGFITHKFRERLMRKKKEYTDVATGI
B5: GTPBP10 (protein, UniProt A4D1E9 1-387, looked up)
GTP-binding protein 10: MVHCSCVLFRKYGNFIDKLRLFTRGGSGGMGYPRLGGEGGKGGDVWVVAQNRMTLKQLKDRYPRKRFVAGVGANSKISALKGSKGKDCEIPVPVGISVTDENGKIIGELNKENDRILVAQGGLGGKLLTNFLPLKGQKRIIHLDLKLIADVGLVGFPNAGKSSLLSCVSHAKPAIADYAFTTLKPELGKIMYSDFKQISVADLPGLIEGAHMNKGMGHKFLKHIERTRQLLFVVDISGFQLSSHTQYRTAFETIILLTKELELYKEELQTKPALLAVNKMDLPDAQDKFHELMSQLQNPKDFLHLFEKNMIPERTVEFQHIIPISAVTGEGIEELKNCIRKSLDEQANQENDALHKKQLLNLWISDTMSSTEPPSKHAVTTSKMDII

Experiments:
FLAG-USP33 = test: IP-MS of FLAG-USP33 and variants vs empty vector; assay type: cell-based, human
Protocol: For transfection, 1x10^6 HEK293 cells were seeded in 10 cm dishes with DMEM, 10% FBS, 1% L-G (without antibiotic) medium, incubated at 37 °C, with 5 % CO2 for 24 h. Cells were transfected with a transfection mix containing […] of Opti-MEM (Thermo Fisher Scientific), 20 μL of PEI stock (1 mg/mL) and […] of the desired cDNA. For co-transfection, 2.5 μg of DNA of each plasmid was used. The mix was vortexed for 15 s and incubated at room temperature for 15–20 min. The transfection mix was added to the dish and gently mixed. Plates were incubated at 37 °C for 36–48 h before harvesting. For USP33 constructs, 5 μM Bortezomib (proteasome inhibitor) was added 4 hours before harvesting the cells.
FLAG fusion proteins were immunoprecipitated from HEK293 cells transfected with plasmids encoding the protein of interest using the anti-FLAG M2 affinity gel from Sigma-Aldrich. Cell pellets were lysed with 100–200 μL/per dish lysis buffer (Pierce RIPA buffer, 1X protease inhibitor (Roche), 50 unit/μL of Benzonase Nuclease) rotating at 4 °C for 30–45 min. […] The cell lysate was clarified by centrifugation at 17,000 x g, at 4 °C for 12 min, and the supernatant was transferred to a clean, pre-chilled low-binding Eppendorf tube. […] The IP samples were centrifuged at 6500 x g at 4 °C for 30 s. The supernatant containing the unbound proteins was transferred to a clean tube. The resin was washed three times with 500 μL of TBS, centrifuged at 6500 x g at 4 °C for 30 s. The bound FLAG fusion protein was eluted with 100 μL of 150 ng/μL 3X FLAG peptide (Sigma) in TBS and incubated in the cold room for 1 h or overnight. The tube was centrifuged at 6500 x g at 4 °C for 30 s; the eluted proteins were transferred to a clean tube. The eluted proteins were prepared for analysis by western blot or Mass Spectrometry.
Immunoprecipitation (IP) was carried out as described above; four technical replicates of each IP condition were performed, and the empty vector was used as a negative control. The eluted protein was processed following the Strap-micro protocol (Protifi). The IP elution containing 1–100 μg protein was 1:1 mixed with 2X lysis buffer (10% SDS, 100 mM TEAB pH 8.5). […] Samples were vortexed, mixed with 165 μL of 100 mM TEAB in 90% methanol, and passed through an S-Trap micro column at 4000 g for 30 s to trap the proteins. The column was washed with 150 μL of 100 mM TEAB in 90% methanol (at 4,000 x g for 30 seconds) three times. The S-Trap column was centrifuged again and transferred to a clean 2 mL tube for digestion with 20 μL of digestion buffer (1 μg trypsin per 10 μg sample in 50 mM TEAB), at 37 °C overnight in a thermomixer without shaking. The digested peptides were eluted with […] of 50 mM TEAB in water, […] of 0.2 % formic acid in water, and […] of 50 % acetonitrile in water, centrifuging at 4000 x g for 1 min each time. The three elutions were pooled in a low-binding tube, placed on dry ice until frozen, dried in a SpeedVac vacuum (Thermo Scientific), and proceeded with the LCMS analysis.
Eluted peptides were resuspended in water supplemented with 0.015% dodecyl maltoside and 0.1% formic acid and were injected on a Vanquish Neo UHPLC System operating in trap and elute mode coupled to an Orbitrap Astral Mass Spectrometer (Thermo Fisher Scientific). […] Eluted peptides were analyzed using data-independent acquisition mode on the mass spectrometer.
Peptides were searched against the Uniprot Swissprot Human database (released on 02/01/2023) supplemented with the USP20 and USP33 mutants using DiaNN (v1.9.0)[62] operating in library-free mode. Data filtering and statistical analysis were carried out in Python (v3.9.0) using the packages pandas, numpy, sklearn, scipy, rpy2, Plotnine, and Plotly and R (v4.4.3) using the package limma.
Protein groups identified with a single peptide or quantified in fewer than three replicates in at least 1 condition were filtered out. […]

FLAG-USP20 = test: IP-MS of FLAG-USP20 and variants vs empty vector; assay type: cell-based, human
Protocol: For transfection, 1x10^6 HEK293 cells were seeded in 10 cm dishes with DMEM, 10% FBS, 1% L-G (without antibiotic) medium, incubated at 37 °C, with 5 % CO2 for 24 h. Cells were transfected with a transfection mix containing 970 mL of Opti-MEM (Thermo Fisher Scientific), 20 μL of PEI stock (1 mg/mL) and 5 mg of the desired cDNA. For co-transfection, 2.5 μg of DNA of each plasmid was used. The mix was vortexed for 15 s and incubated at room temperature for 15–20 min. The transfection mix was added to the dish and gently mixed. Plates were incubated at 37 °C for 36–48 h before harvesting. For USP33 constructs, 5 μM Bortezomib (proteasome inhibitor) was added 4 hours before harvesting the cells.
FLAG fusion proteins were immunoprecipitated from HEK293 cells transfected with plasmids encoding the protein of interest using the anti-FLAG M2 affinity gel from Sigma-Aldrich. […] The cell lysate was clarified by centrifugation at 17,000 x g, at 4 °C for 12 min, and the supernatant was transferred to a clean, pre-chilled low-binding Eppendorf tube. […] The IP samples were centrifuged at 6500 x g at 4 °C for 30 s. The supernatant containing the unbound proteins was transferred to a clean tube. The resin was washed three times with 500 μL of TBS, centrifuged at 6500 x g at 4 °C for 30 s. The bound FLAG fusion protein was eluted with 100 μL of 150 ng/μL 3X FLAG peptide (Sigma) in TBS and incubated in the cold room for 1 h or overnight. The tube was centrifuged at 6500 x g at 4 °C for 30 s; the eluted proteins were transferred to a clean tube. The eluted proteins were prepared for analysis by western blot or Mass Spectrometry.
Immunoprecipitation (IP) was carried out as described above; four technical replicates of each IP condition were performed, and the empty vector was used as a negative control. The eluted protein was processed following the Strap-micro protocol (Protifi). The IP elution containing 1–100 μg protein was 1:1 mixed with 2X lysis buffer (10% SDS, 100 mM TEAB pH 8.5). […] Samples were vortexed, mixed with 165 μL of 100 mM TEAB in 90% methanol, and passed through an S-Trap micro column at 4000 g for 30 s to trap the proteins. The column was washed with 150 μL of 100 mM TEAB in 90% methanol (at 4,000 x g for 30 seconds) three times. The S-Trap column was centrifuged again and transferred to a clean 2 mL tube for digestion with 20 μL of digestion buffer (1 μg trypsin per 10 μg sample in 50 mM TEAB), at 37 °C overnight in a thermomixer without shaking. The digested peptides were eluted with 40 mL of 50 mM TEAB in water, 40 mL of 0.2 % formic acid in water, and 40 mL of 50 % acetonitrile in water, centrifuging at 4000 x g for 1 min each time. The three elutions were pooled in a low-binding tube, placed on dry ice until frozen, dried in a SpeedVac vacuum (Thermo Scientific), and proceeded with the LCMS analysis.
Protein groups identified with a single peptide or quantified in fewer than three replicates in at least 1 condition were filtered out. Protein group intensities were median normalized and missing values were imputed using a Gaussian distribution centered on the median with a downshift of 1.8 and width of 0.3 (relative to the standard deviation).

[1] = IP-MS, FLAG-USP33-ΔDUSP2 vs EV, comparison bh_2 Sample_Limma_ImpMedInt_USP33_DUSP2_domain/EV
[2] = IP-MS, FLAG-USP33-ΔUBP vs EV, comparison bh_2 Sample_Limma_ImpMedInt_USP33_UBP_domain/EV
[3] = IP-MS, FLAG-USP33 UBP mutant vs EV, comparison USP33_E86K_D90R/EV, Limma
[4] = IP-MS, FLAG-USP20-ΔUBP vs EV, comparison bh_2 Sample_Limma_ImpMedInt_USP20_UBP_domain/EV
[5] = IP-MS, FLAG-USP20 vs EV, comparison USP20_wt/EV, Limma
[6] = Table S7b USP20 MS_and_motif, bait USP20

Row | Molecule | log2_FC (FLAG-USP33; [1]) | log2_FC (FLAG-USP33; [2]) | log2_FC (FLAG-USP33; [3]) | log2_FC (FLAG-USP20; [4]) | log2_FC (FLAG-USP20; [5]) | log2_FC (FLAG-USP20; [6]) | log2_FC (FLAG-USP33; IP-MS, FLAG-USP33 vs EV, comparison USP33_wt/EV, Limma) | log2_FC (FLAG-USP33; Table S7c USP33 MS_and_motif, bait USP33)
1 | B1 | 3.226 | 2.888 |  |  |  |  |  | 
2 | B2 |  |  | 2.646 |  |  |  |  | 
3 | B3 | 4.626 | 4.59 | 4.422 | 4.865 | 4.082 | 4.082 | 4.38 | 4.38
4 | B4 |  |  | 4.934 | 4.725 | 4.955 | 4.955 |  | 
5 | B5 |  | 2.53 |  |  |  |  |  | 

Reference: paper PMC13376213, “Systematic discovery of motif-based interactions of the auxiliary domains of USP family deubiquitinases” (Nature Communications, 2026)
